Legend:
[1] = biological target: hu-HER2-ch(IV) (human; chicken (Gallus gallus)) (UniProt P04626); experiment: flow cytometry on CHO-S cells transiently transfected with hu-HER2-ch(IV), PE-goat anti-human IgG, MFI (Example 24)
[2] = biological target: hu-HER2-ch(I) (chicken (Gallus gallus); human) (UniProt P04626); experiment: flow cytometry on CHO-S cells transiently transfected with hu-HER2-ch(I), PE-goat anti-human IgG, MFI (Example 24)
[3] = biological target: hu-HER2-ch(III) (human; chicken (Gallus gallus)) (UniProt P04626); experiment: flow cytometry on CHO-S cells transiently transfected with hu-HER2-ch(III), PE-goat anti-human IgG, MFI (Example 24)

EC50 (read off the curve) [1]: 0.04 µg/mL
EC50 (read off the curve) [2]: 0.05 µg/mL
EC50 (read off the curve) [3]: 0.03 µg/mL
B1: HER2 HuMab 153 (antibody, V domains shown)
VH: QVQLVESGGGVVQPGRSLRLSCAASGFTFSDYVIHWVRQAPGKGLEWVTVISYDGSNKYYADSVKGRFTISRDNSKNTLYLQMNSLSAEDTAMYYCARGGITGTTGVFDYWGQGTLVTVSS
VL: DIQMTQSPSSLSASVGDRVTITCRASQGISSWLAWYQQKPEKAPKSLIYDASSLQSGVPSRFSGSGYGTDFSLTISSLQPEDFAIYYCQQYKSYPITFGQGTRLEIK

From patent publication US20140170149A1
